Laboratory results reported in doi:10.1101/188169.

Target: endogenous α-SYN from human postmortem brain (substantia nigra) (human (endogenous in postmortem brain)) (UniProt P37840)

endogenous α-SYN from human postmortem brain (substantia nigra) (from UniProt P37840 1-140) (natural protein)
percent of detected α-SYN that is oligomeric (PD brain): 56%
percent of detected α-SYN that is oligomeric (control brain): 23%
